Results published in US12496346B2, “Phospholipid-flavagline conjugates and methods of using the same for targeted cancer therapy” (Cellectar Biosciences, Inc., priority 2019, dated 2025).
Read-outs that look alike come from different tables or passages of the source.

Assays:
[1] = tested on: Colorectal (HCT-116) tumor; assay: In vivo imaging of targeted delivery; set-up: species or system nude mouse
Experimental: Initial targeting noted within 30 minutes (not shown).

in vivo = type: in vivo, mice
Experimental: Listed in Table 5 are the doses administered to the mice, and how many mice were alive after treatment (“3/3” indicates 3 out of 3 mice were alive). […] MTD for CLR 1865 was between 5 and 10 mg/kg.

in vitro [2] = conditions: human, plasma
Experimental: (§1) A small amount of molecule was exposed to plasma, and the plasma was then analyzed via HPLC or MS to determine if the molecule was degraded.

in vitro [3] = conditions: mouse, plasma
Experimental: as §1

Plasma stability [4] = assay: Plasma stability
Experimental: as §1

[5] = tested on: HCT 116 cells (human colon cancer); type: in vivo; conditions: three doses of 1 mg/mg each, FIG. 9
[6] = tested on: A549 (human lung adenocarcinoma); assay: cells; type: cell-based; conditions: for Therapeutic Index (TI), second value in parentheses: from the NHDF value in parentheses
Plasma stability [7] = assay: Plasma stability; remark: listed apart in the source
Experimental: as §1

| SMILES | mice alive after treatment (in vivo; Dose 0.1 mg/kg) | mice alive after treatment (in vivo; Dose 0.25 mg/kg) | mice alive after treatment (in vivo; Dose 0.5 mg/kg) | mice alive after treatment (in vivo; Dose 1.0 mg/kg) | mice alive after treatment (in vivo; Dose 5.0 mg/kg) | mice alive after treatment (in vivo; Dose 10.0 mg/kg) | tolerability compared to FLV3 alone (in vivo; mice) | half-life (in vitro [2]) [h] | half-life (in vitro [3]) [h] | human plasma stability (Plasma stability [4]) | Therapeutic Index (TI), second value in parentheses ([6]; in vitro) | other results |
| --- | --- | --- | --- | --- | --- | --- | --- | --- | --- | --- | --- | --- |
| CN1/C(=C/C=C2\CCCC(/C=C/C3=[N+](C)c4ccccc4C3(C)C)=C2c2ccc(CCCCCCCCCCCCCCCCCCOP(=O)(O)OCC[N+](C)(C)C)cc2)C(C)(C)c2ccccc21 [CLR 1502] | – | – | – | – | – | – | – | – | – | – | – | time to initial targeting ([1]; 1 mg injected): ≤ 30 min; time to maximum distribution ([1]; 1 mg injected, Pearl Infrared Imaging System): ≤ 24 h; distribution in tumor ([1]; approximately 5.5 hours post injection, 1 mg): the tumor still showed red color |
| COC(=O)[C@H]1[C@@H](O)[C@@]2(O)c3c(OC)cc(OCCCCNC(=O)OCC(C)(C)SSCCCCCCCCCCCCCCCCCCOP(=O)([O-])OCC[N+](C)(C)C)cc3O[C@@]2(c2ccc(OC)cc2)[C@@H]1c1ccccc1 [CLR 1852] | 3/3 | 3/3 | 3/3 | 3/3 | 3/3 | 3/3 | excellent improvement in tolerability | > 6.67 | > 6.67 | excellent human plasma stability | (915) | maximum tolerated dose (MTD) (in vivo; mice): did not achieve a maximum tolerated dose; in vivo therapeutic index (in vivo; mouse, in vivo): at least 25; tumor volume compared to vehicle [5]: reduced the tumor volume beginning at around 27 days; Therapeutic Index (TI) [6]: 360; cytotoxic potency compared to FLV3 alone ([6]; various concentrations, FIG. 8 (A549 and NHDF)): modest loss in potency; time stable in plasma (Plasma stability [7]; species not given): at least 7 hours |
| COc1ccc([C@@]23Oc4cc(OCCCCNC(=O)OCC(C)(C)SSCCCCCCCCCCCCCCCCCCOP(=O)([O-])OCC[N+](C)(C)C)cc(OC)c4[C@]2(O)[C@H](O)[C@H](C(=O)O)[C@H]3c2ccccc2)cc1 [CLR 1865] | 3/3 | 3/3 | 3/3 | 3/3 | 3/3 | 2/3 | excellent improvement in tolerability | > 6.67 | 3.32 | excellent human plasma stability | (37.3) | in vivo therapeutic index (in vivo; mice): ≥ 12.5; MTD (in vivo; mouse, in vivo, mice, read-out: maximum tolerated dose (MTD)): 5 to 10 mg/kg; Therapeutic Index (TI) ([6]; in vitro, NHDF IC50 relative to cancer cell IC50): 11.64; time stable in mouse plasma (Plasma stability [7]; mouse): 3.3 h |
